We go through four molecules from patent US20240190962A1 (IMMUNOWAKE, published 2024).

Experiment [1] concerns the target T1, human PD-1 on HEK-PD-1-IL-2 cells (human, UniProt Q15116 25-288).
T1 construct: whole, on cells
Nature of the experiment: FACS on HEK-PD-1-IL-2 cells.

The target of experiment [2] is T2, human IL-2 receptor (IL-2Rα, IL-2Rβ, IL-2Rγ) (human, UniProt P01589 22-272; P14784 27-551; P31785 23-369).
T2 sequence (looked up) 1: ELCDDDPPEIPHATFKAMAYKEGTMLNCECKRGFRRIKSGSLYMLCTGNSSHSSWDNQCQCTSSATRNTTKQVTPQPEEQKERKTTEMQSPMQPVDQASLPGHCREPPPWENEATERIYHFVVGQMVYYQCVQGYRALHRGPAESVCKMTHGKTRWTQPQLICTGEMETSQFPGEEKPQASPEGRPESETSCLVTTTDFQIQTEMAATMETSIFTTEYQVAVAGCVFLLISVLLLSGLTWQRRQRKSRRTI
T2 sequence (looked up) 2: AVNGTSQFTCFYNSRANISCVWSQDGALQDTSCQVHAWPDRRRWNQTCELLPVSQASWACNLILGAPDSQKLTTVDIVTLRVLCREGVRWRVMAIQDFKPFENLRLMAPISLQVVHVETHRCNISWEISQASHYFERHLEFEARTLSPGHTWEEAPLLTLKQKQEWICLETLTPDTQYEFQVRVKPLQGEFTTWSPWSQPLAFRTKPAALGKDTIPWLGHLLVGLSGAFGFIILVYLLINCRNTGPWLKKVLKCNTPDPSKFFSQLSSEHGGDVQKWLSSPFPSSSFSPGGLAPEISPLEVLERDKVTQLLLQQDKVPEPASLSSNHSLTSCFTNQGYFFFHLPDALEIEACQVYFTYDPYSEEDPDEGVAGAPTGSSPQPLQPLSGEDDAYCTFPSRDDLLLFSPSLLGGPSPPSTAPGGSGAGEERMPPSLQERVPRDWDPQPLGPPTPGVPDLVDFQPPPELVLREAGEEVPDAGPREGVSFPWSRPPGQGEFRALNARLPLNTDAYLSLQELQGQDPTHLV
T2 sequence (looked up) 3: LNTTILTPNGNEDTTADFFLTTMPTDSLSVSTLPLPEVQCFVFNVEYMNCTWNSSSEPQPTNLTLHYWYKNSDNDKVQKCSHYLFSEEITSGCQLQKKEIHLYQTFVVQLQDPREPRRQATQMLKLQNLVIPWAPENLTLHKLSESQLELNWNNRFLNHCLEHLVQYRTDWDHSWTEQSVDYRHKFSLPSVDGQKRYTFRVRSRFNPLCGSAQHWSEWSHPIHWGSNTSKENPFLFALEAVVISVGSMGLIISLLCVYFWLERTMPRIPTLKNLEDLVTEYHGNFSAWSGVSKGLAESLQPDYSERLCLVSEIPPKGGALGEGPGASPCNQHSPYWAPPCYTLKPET
Nature of the experiment: cell-based or functional assay.

The target in experiment [3] is T3, mouse PD-1 (mouse, UniProt Q02242 25-167, limits assumed).
T3 construct: also called mPD-1
T3 sequence (looked up): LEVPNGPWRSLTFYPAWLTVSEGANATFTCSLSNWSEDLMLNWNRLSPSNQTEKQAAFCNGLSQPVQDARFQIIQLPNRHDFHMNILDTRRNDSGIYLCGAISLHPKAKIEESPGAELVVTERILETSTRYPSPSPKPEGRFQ
Put plainly: PD-L1-Fc format, calibrated on PD-L1(wt)-Fc.

For experiment [4], the target named is T4, human PD-1 (human, UniProt Q15116 25-167, limits assumed).
T4 construct: also called hPD-1
Put plainly: PD-L1-Fc format, calibrated on PD-L1(wt)-Fc.

In experiment [5] the target is T3, mouse PD-1. Put plainly: PD-L2-Fc format, calibrated on PD-L2(wt)-Fc.
The target of experiment [6] is T4, human PD-1. Nature of the experiment: PD-L2-Fc format, calibrated on PD-L2(wt)-Fc.

Positions count from the first letter of the chain named. Numbers in names are those of the source.

The term Kd denotes the constant that tells how readily two partners part at equilibrium. A lower Kd goes with tighter binding.

T4 sequence (Q15116 25-167 limits assumed): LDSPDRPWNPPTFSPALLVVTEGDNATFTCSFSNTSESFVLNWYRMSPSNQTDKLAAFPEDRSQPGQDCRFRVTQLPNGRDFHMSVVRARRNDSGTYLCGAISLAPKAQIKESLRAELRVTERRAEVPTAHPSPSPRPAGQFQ
T1 sequence (Q15116 25-288): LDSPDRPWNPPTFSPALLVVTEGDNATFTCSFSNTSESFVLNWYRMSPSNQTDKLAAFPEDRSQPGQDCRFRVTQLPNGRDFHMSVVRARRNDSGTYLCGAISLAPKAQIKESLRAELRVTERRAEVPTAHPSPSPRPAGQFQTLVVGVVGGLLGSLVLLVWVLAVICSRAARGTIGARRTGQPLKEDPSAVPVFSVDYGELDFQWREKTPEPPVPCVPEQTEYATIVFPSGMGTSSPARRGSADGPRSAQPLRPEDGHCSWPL

B1: ligand-IL-2 mutant-PD-L2-Fc (Fc fusion)
chain 1: LFTVTVPKELYIIEHGSNVTLECNFDTGSHVNLGAITASLQKVENDTSPHRERATLLEEQLPLGKASFHIPQVQVRDEGQYQCIIIYGVAWDYKYLTLKVKASYRKINTHILKVPETDEVELTCQATGYPLAEVSWPNVSVPANTSHSRTPEGLYQVTSVLRLKPPPGRNFSCVFWNTHVRELTLASIDLQSQMEPRTHPTGGGGSAPTSSSTKKTQLQLEHLLLDLQMILNGINNYKNPKLTDMLTFEFYMPKKATELKHLQCLERELKPLEEVLNLAQSKNFHLRPRDLISNINVIVLELKGSETTFMCEYADETATIVEFLNRWITFCQSIISTLTDKTHTCPPCPAPEDEGGPSVFLFPPKPKDTLMISRTPEVTCVVVDVSHEDPEVKFNWYVDGVEVHNAKTKPREEQYNSTYRVVSVLTVLHQDWLNGKEYKCKVSNKALPAPIEKTISKAKGQPREPQVYVYPPSREEMTKNQVSLTCLVKGFYPSDIAVEWESNGQPENNYKTTPPVLDEDGSFALVSKLTVDKSRWQQGNVFSCSVMHEALHNHYTQKSLSLSPGK
chain 2: LFTVTVPKELYIIEHGSNVTLECNFDTGSHVNLGAITASLQKVENDTSPHRERATLLEEQLPLGKASFHIPQVQVRDEGQYQCIIIYGVAWDYKYLTLKVKASYRKINTHILKVPETDEVELTCQATGYPLAEVSWPNVSVPANTSHSRTPEGLYQVTSVLRLKPPPGRNFSCVFWNTHVRELTLASIDLQSQMEPRTHPTGGGGSDKTHTCPPCPAPEKKGGPSVFLFPPKPKDTLMISRTPEVTCVVVDVSHEDPEVKFNWYVDGVEVHNAKTKPREEQYNSTYRVVSVLTVLHQDWLNGKEYKCKVSNKALPAPIEKTISKAKGQPREPQVYVLPPSREEMTKNQVSLLCLVKGFYPSDIAVEWESNGQPENRYMTWPPVLDSDGSFFLYSKLTVDKSRWQQGNVFSCSVMHEALHNHYTQKSLSLSPGK
notes: also called IL-2(R38D/K43E/E61R)/PD-L2-Fc immunocytokine; construct #11
Turning to B1, the binding result in experiment [1] is recorded as “binds”. In experiment [2], the “Percent IL-2 signal transduction (HEK-IL-2 reporter assay)” value turned out to be 2.4% and the “Percent IL-2 signal transduction (HEK-PD-1-IL-2 reporter assay)” value was 43.5%.

B2: PD-L1(mut7)-Fc (Fc fusion)
chain 1: FTVTVPKDLYVVEYGSNMTIECKFPVEKQLDLAALQVYWMMEDKNIIQFVHGEEDLKVQHSSYRQRARLLKDQLSLGNAALQITDVKLQDAGVYTCLIAYGGADYKRITVKVNAPYNKINQRILVVDPVTSEHELTCQAEGYPKAEVIWTSSDHQVLSGKTTTTNSKREEKLFNVTSTLRINTTTNEIFYCTFRRLDPEENHTAELVIPELPLAHPPNERGGGGSGGGDKTHTCPPCPAPEDEGGPSVFLFPPKPKDTLMISRTPEVTCVVVDVSHEDPEVKFNWYVDGVEVHNAKTKPREEQYNSTYRVVSVLTVLHQDWLNGKEYKCKVSNKALPAPIEKTISKAKGQPREPQVYVYPPSREEMTKNQVSLTCLVKGFYPSDIAVEWESNGQPENNYKTTPPVLDEDGSFALVSKLTVDKSRWQQGNVFSCSVMHEALHNHYTQKSLSLSPGK
chain 2: B2 chain 1 with D242K, E243K, Y359L, T374L, N398R, K400M, T402W, E408S, A413F, V415Y
notes: also called PD-L1(I54Q/E58M/R113T/M115L/S117A)
Turning to B2, the Kd with mouse PD-1 [3] stood at 110 nM; with human PD-1 [4], 98 nM.

B3: PD-L2(mut2)-Fc (Fc fusion)
chain 1: LFTVTVPKELYIIEHGSNVTLECNFDTGSHVNLGAITAVLQKVENDTSPHRERATLLEEQLPLGKASFHIPQVQVRDEGQYQCIIIYGVAWDYKYLTLKVKASYRKINTHILKVPETDEVELTCQATGYPLAEVSWPNVSVPANTSHSRTPEGLYQVTSVLRLKPPPGRNFSCVFWNTHVRELTLASIDLQSQMEPRTHPTGGGGSGGGDKTHTCPPCPAPEDEGGPSVFLFPPKPKDTLMISRTPEVTCVVVDVSHEDPEVKFNWYVDGVEVHNAKTKPREEQYNSTYRVVSVLTVLHQDWLNGKEYKCKVSNKALPAPIEKTISKAKGQPREPQVYVYPPSREEMTKNQVSLTCLVKGFYPSDIAVEWESNGQPENNYKTTPPVLDEDGSFALVSKLTVDKSRWQQGNVFSCSVMHEALHNHYTQKSLSLSPGK
chain 2: B3 chain 1 with D223K, E224K, Y340L, T355L, N379R, K381M, T383W, E389S, A394F, V396Y
notes: also called PD-L2(S58V)
For the molecule B3, the Kd turned out to be 230 nM with mouse PD-1 [5] and 350 nM with human PD-1 [6].

B4: PD-L2(mut4)-Fc (Fc fusion)
chain 1: B3 chain 1 with T37V, Q41L
chain 2: LFTVTVPKELYIIEHGSNVTLECNFDTGSHVNLGAIVAVLLKVENDTSPHRERATLLEEQLPLGKASFHIPQVQVRDEGQYQCIIIYGVAWDYKYLTLKVKASYRKINTHILKVPETDEVELTCQATGYPLAEVSWPNVSVPANTSHSRTPEGLYQVTSVLRLKPPPGRNFSCVFWNTHVRELTLASIDLQSQMEPRTHPTGGGGSGGGDKTHTCPPCPAPEKKGGPSVFLFPPKPKDTLMISRTPEVTCVVVDVSHEDPEVKFNWYVDGVEVHNAKTKPREEQYNSTYRVVSVLTVLHQDWLNGKEYKCKVSNKALPAPIEKTISKAKGQPREPQVYVLPPSREEMTKNQVSLLCLVKGFYPSDIAVEWESNGQPENRYMTWPPVLDSDGSFFLYSKLTVDKSRWQQGNVFSCSVMHEALHNHYTQKSLSLSPGK
notes: also called PD-L2(T56V/S58V/Q60L)
Consider B4, for which the equilibrium dissociation constant (Kd) with mouse PD-1 [5] was determined as 220 nM; with human PD-1 [6], 255 nM.
